Here are results for 1 substance from US20230235073A1.

For test [1], the target named is mouse CD36 recombinant protein (Sino Biological, reference 50422-M08H) (mouse) (UniProt Q08857). Kind of test: ELISA, plate coated with mouse CD36, OD630, panel 'Coating: mouse CD36'.
In test [2] the target is human CD36 recombinant protein (Sino Biological, reference 10752-H08H) (human) (UniProt P16671). As to the kind of experiment: ELISA, plate coated with human CD36, OD630, panel 'Coating: human CD36'. In general terms: An ELISA detects its analyte on a solid surface through an enzyme-linked reagent.
Test [3] has the same target. As to the kind of experiment: SPR Biacore T200, antibody captured on anti-mouse IgA, CD36 analyte, 2-state model. (Surface plasmon resonance follows binding to a sensor surface in real time, without labels.)
The target is the same in test [4]. As to the kind of experiment: SPR Biacore T200, antibody captured on anti-mouse IgA, CD36 analyte, bivalent model.
Test [5] shares this target. As to the kind of experiment: SPR Biacore T200, antibody captured on anti-mouse IgA, CD36 analyte 3.3-333 nM, 1-to-1 model.
The target in test [6] is human CD36 on cells overexpressing human CD36 (human) (UniProt P16671). As to the kind of experiment: FACS on cells overexpressing human CD36, % of Binding.

What is called EC50 (read off the curve) is the midpoint of the concentration-response curve. Usually Kd stands for the equilibrium constant for the complex coming apart. As a reminder, the koff is the first-order rate constant of dissociation. The term kon denotes the rate constant with which the complex forms.

Chain of human CD36 recombinant protein (Sino Biological, reference 10752-H08H) (human) (P16671 30-439 limits assumed): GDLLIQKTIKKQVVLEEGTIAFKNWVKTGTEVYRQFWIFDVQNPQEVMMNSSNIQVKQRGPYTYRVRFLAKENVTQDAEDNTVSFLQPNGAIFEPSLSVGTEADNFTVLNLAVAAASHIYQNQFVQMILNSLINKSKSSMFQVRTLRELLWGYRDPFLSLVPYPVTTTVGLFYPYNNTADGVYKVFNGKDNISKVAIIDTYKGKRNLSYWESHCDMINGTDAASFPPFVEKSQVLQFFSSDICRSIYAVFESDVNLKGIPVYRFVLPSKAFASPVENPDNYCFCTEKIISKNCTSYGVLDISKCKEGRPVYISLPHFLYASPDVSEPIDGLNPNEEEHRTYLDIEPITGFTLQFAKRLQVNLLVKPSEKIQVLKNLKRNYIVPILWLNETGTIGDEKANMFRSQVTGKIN
Chain of human CD36 on cells overexpressing human CD36 (human) (P16671 2-472 limits assumed): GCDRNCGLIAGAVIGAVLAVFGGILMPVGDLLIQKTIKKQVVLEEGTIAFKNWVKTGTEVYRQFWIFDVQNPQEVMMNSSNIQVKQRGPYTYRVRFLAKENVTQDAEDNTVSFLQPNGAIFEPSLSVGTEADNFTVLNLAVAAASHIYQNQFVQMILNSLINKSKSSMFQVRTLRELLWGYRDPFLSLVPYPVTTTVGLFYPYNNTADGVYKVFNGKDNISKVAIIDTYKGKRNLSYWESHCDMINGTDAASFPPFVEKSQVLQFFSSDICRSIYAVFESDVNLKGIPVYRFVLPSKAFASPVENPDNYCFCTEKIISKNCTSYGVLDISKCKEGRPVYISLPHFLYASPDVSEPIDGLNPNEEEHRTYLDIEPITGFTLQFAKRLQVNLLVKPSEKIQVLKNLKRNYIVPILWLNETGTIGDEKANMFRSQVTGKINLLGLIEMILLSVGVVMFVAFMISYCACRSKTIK
Chain of mouse CD36 recombinant protein (Sino Biological, reference 50422-M08H) (mouse) (Q08857 30-439 limits assumed, stated change not applied): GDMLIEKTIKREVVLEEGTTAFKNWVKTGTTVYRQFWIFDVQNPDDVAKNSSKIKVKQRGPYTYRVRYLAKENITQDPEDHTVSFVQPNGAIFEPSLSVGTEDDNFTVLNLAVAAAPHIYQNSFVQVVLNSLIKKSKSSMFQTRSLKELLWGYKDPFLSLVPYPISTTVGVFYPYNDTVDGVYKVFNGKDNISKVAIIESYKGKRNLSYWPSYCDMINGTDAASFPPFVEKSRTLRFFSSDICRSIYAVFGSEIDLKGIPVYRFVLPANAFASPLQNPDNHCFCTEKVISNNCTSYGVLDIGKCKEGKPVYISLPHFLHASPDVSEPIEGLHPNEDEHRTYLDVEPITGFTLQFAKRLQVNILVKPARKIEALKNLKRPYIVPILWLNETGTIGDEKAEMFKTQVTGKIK

As to “commercial neutralizing monoclonal anti-CD36 antibody JC63.1 (CAYMAN, CAY-10009893-500)”, the EC50 (read off the curve) in test [1] was 1 nM. In test [2], the EC50 (read off the curve) lay within 1 to 2 nM. For the same substance, in test [3], the dissociation constant (Kd) was found to be 7.61 nM, the ka1 is 86900 M⁻¹ s⁻¹, the ka2 stood at 0.000572 s⁻¹ and the kd1 was 0.0018 s⁻¹. In addition, the kd2 in test [3] was 0.000332 s⁻¹. In test [4], the KD1 is 76.5 nM, the KD2 came out at 956 nM, the ka1 is 27200 M⁻¹ s⁻¹ and the ka1 (second column so headed) is 413 M⁻¹ s⁻¹. Further, in test [4], the ka2 was 5.5e-05 1/RUs, the kd1 was 0.00206 s⁻¹ and the kd2 turned out to be 0.000399 s⁻¹. In addition, in test [5], the Kd stood at 4.71 nM, the koff is 0.00196 s⁻¹ and the kon worked out at 418000 M⁻¹ s⁻¹. The substance further came in with an EC50 (read off the curve) in test [6] of 0.03 nM.
